Reference: US6329500
Values belong to the substance of their own block, whether it stands above or below them.

Experiments:
[1] = biological target: transforming growth factor-β1 (TGF-β1); test: 0.1 nM ^125 I-TGF-β1 in α2 M-MA-coated microtiter wells, 1 h
[2] = biological target: transforming growth factor-β2 (TGF-β2); test: 0.1 nM ^125 I-TGF-β2 in α2 M-MA-coated microtiter wells, 1 h
[3] = biological target: transforming growth factor-β1 (TGF-β1); test: solution-phase competitor of ^125 I-TGF-β1 binding to immobilized α2 M-MA
[4] = biological target: methylamine-modified human α2 -macroglobulin (α2 M-MA) (human) (UniProt P01023); test: ^125 I-TGF-β1 in α2 M-MA-coated wells with 0.2 µM unlabeled TGF-β
[5] = biological target: GST-α2 M peptide-fusion protein FP3 (human) (UniProt P01023); test: ligand blot; ^125 I-TGF-β1 on PVDF-immobilized FP3 with 0.2 µM unlabeled TGF-β1
[6] = biological target: methylamine-modified human α2 -macroglobulin (α2 M-MA) (human) (UniProt P01023); test: ^125 I-TGF-β2 in α2 M-MA-coated wells with 0.2 µM unlabeled TGF-β
[7] = biological target: GST-α2 M peptide-fusion protein FP3 (human) (UniProt P01023); test: ligand blot; ^125 I-TGF-β2 on PVDF-immobilized FP3 with 0.2 µM unlabeled TGF-β2

amount of ^125 I-TGF-β bound [1]: 3.4 fmol | amount of ^125 I-TGF-β bound [2]: 2.6 fmol
Substance: methylamine-modified human α2 -macroglobulin (α2 M-MA) (from UniProt P01023)

IC50 [3]: 360 nM
Substance: monomeric human α2 -macroglobulin (from UniProt P01023)

percent decrease of binding [4]: > 75% | percent inhibition of binding [5]: 72%
Substance: transforming growth factor-β1 (TGF-β1) (ligand)

percent decrease of binding [6]: > 75% | percent inhibition of binding [7]: 90%
Substance: transforming growth factor-β2 (TGF-β2) (ligand)
